Experimental data reported in PMC4353811.

Key:
[1] = biological target: Rad51;Psy3-Csm2 (Saccharomyces cerevisiae;Saccharomyces …, UniProt P25454;Q12318;P40465 1-400;1-242;1-213, |); assay: EMSA and supershift
[2] = biological target: T1, Psy3-Csm2 (Saccharomyces cerevisiae, UniProt Q12318;P40465 1-242;1-213); assay: EMSA
T1 sequence 1: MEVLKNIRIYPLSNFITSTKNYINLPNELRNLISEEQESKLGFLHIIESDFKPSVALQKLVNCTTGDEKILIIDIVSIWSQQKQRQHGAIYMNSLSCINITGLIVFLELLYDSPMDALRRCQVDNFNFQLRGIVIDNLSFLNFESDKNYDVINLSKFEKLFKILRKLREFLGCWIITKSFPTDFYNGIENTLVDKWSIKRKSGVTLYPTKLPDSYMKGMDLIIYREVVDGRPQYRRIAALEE
T1 sequence 2: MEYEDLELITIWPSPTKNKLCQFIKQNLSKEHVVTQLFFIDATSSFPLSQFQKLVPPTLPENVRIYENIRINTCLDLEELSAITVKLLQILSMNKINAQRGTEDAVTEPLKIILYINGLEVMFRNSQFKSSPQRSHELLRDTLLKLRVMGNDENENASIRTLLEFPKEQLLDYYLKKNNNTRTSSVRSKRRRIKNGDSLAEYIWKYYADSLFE

[3] = biological target: T2, Psy3-Csm2-I40A/I83A (Saccharomyces cerevisiae, UniProt Q12318;P40465 1-242;1-213, I40A;I83A;Csm2:); assay: EMSA
T2 sequence 1: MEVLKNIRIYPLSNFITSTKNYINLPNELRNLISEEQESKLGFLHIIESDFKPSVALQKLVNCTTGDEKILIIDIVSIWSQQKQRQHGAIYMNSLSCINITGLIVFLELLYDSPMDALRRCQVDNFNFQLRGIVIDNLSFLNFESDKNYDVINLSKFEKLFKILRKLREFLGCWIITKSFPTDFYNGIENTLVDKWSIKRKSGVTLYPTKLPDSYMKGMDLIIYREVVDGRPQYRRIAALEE
T2 sequence 2: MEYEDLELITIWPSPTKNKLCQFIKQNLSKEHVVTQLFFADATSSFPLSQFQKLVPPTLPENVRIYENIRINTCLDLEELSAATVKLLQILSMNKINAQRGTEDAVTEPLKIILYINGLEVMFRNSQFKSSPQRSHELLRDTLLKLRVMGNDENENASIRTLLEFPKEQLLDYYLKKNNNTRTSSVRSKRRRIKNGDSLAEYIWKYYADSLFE

[4] = biological target: T3, Psy3-Csm2-I83A/L87A (Saccharomyces cerevisiae, UniProt Q12318;P40465 1-242;1-213, I83A;L87A;Csm2:); assay: EMSA
T3 sequence 1: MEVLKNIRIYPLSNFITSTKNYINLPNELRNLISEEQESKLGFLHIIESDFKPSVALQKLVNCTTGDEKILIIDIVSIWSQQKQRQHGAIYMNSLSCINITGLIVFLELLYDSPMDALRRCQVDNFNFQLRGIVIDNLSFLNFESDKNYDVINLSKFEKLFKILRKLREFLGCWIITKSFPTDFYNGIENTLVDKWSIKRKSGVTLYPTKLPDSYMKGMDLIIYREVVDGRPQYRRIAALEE
T3 sequence 2: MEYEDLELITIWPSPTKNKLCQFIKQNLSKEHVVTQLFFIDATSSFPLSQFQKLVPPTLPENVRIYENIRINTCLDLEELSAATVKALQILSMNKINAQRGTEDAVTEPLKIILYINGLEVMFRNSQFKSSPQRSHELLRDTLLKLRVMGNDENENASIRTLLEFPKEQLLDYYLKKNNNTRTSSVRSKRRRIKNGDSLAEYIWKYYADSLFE

Measured: binding result

Sequence of Rad51;Psy3-Csm2 (P25454 whole entry, one chain of several): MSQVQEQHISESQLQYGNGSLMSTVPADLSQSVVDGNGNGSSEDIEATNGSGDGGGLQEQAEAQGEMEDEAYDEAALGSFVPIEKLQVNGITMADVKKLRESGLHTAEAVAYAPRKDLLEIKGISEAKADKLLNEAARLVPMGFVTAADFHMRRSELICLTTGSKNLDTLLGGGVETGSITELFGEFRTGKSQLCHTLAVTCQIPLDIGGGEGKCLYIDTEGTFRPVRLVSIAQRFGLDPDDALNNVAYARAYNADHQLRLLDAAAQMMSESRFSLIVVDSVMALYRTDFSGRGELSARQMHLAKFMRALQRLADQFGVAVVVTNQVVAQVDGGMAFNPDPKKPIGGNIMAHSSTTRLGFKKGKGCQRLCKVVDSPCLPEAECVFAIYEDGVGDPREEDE

B1: 60-mer oligo-ssDNA (ssDNA)
DNA: TGGGTGAACCTGCAGGTGGGCAAAGATGTCCTAGCAATCCATTGTCTATGACGTCAAGCT
binds: all assays above
